Laboratory results taken from article PMC6511873 (Nucleic Acids Research, 2019).

Key:
[1] = biological target: T1, Recombinant Fc-extracellular domain fusion of human Jagged-2 (Homo sapiens, UniProt Q9Y219); assay: ELISA
[2] = biological target: T1, Recombinant Fc-extracellular domain …; assay: ELISA; remark: listed apart in the source

T1 sequence (Q9Y219 27-1080): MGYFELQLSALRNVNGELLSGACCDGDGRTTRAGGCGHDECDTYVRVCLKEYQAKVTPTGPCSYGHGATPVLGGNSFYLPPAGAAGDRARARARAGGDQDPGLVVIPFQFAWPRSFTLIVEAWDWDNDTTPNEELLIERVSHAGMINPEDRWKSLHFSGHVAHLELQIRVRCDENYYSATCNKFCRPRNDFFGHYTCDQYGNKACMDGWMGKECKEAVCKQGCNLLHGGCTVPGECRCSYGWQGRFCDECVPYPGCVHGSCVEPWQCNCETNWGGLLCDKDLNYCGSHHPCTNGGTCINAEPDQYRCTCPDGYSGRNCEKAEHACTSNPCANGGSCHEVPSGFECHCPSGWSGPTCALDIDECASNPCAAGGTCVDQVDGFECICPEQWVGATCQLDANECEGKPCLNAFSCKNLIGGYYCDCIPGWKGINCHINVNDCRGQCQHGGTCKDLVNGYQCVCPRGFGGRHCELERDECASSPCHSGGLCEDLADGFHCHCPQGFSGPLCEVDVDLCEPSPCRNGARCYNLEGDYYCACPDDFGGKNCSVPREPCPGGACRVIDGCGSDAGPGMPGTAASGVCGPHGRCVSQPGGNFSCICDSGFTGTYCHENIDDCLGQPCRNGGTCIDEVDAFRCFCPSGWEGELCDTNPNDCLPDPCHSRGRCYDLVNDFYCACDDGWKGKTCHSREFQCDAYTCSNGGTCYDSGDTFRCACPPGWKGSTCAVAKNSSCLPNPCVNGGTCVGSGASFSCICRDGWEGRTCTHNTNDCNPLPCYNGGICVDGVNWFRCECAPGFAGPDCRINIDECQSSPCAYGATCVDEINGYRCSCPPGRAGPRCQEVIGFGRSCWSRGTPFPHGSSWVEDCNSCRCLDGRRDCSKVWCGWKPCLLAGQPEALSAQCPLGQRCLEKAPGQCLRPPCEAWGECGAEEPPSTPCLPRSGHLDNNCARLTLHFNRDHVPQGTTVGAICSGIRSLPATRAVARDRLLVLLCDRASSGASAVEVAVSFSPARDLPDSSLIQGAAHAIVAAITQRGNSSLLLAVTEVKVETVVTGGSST

B1: Fab J2/F/R4 (purified) (Fab, V domains shown)
VH: EVQLVESGGGLVQPGGSLRLSCAASGFNLYSSYIHWVRQAPGKGLEWVAYISPSYGYTYYADSVKGRFTISADTSKNTAYLQMNSLRAEDTAVYYCARYYYSGWAVYAGMDYWGQGTLVTVSS
VL: DIQMTQSPSSLSASVGDRVTITCRASQSVSSAVAWYQQKPGKAPKLLIYSASSLYSGVPSRFSGSRSGTDFTLTISSLQPEDFATYYCQQWHHPPAPITFGQGTKVEIK
- binding result [1]: binds

B2: Fab J2/F/R7 (purified) (Fab, V domains shown)
VH: EVQLVESGGGLVQPGGSLRLSCAASGFNIYSSSMHWVRQAPGKGLEWVAYISPSYSYTYYADSVKGRFTISADTSKNTAYLQMNSLRAEDTAVYYCARSYWYSHYAWWWASYSVVGIDYWGQGTLVTVSS
VL: DIQMTQSPSSLSASVGDRVTITCRASQSVSSAVAWYQQKPGKAPKLLIYSASSLYSGVPSRFSGSRSGTDFTLTISSLQPEDFATYYCQQYASYPITFGQGTKVEIK
- EC50 [2]: 24.6 nM

B3: Fab J2/F/R6 (purified) (Fab, V domains shown)
VH: EVQLVESGGGLVQPGGSLRLSCAASGFNLSYSSMHWVRQAPGKGLEWVAYISPSYGYTSYADSVKGRFTISADTSKNTAYLQMNSLRAEDTAVYYCARAHWSSYVSGGWAYPHHSGMDYWGQGTLVTVSS
VL: DIQMTQSPSSLSASVGDRVTITCRASQSVSSAVAWYQQKPGKAPKLLIYSASSLYSGVPSRFSGSRSGTDFTLTISSLQPEDFATYYCQQSYASVLITFGQGTKVEIK
- binding result [1]: binds
